Test results taken from US20230357384A1 (NEXTCURE, published 2023).

How the values were obtained:
[1] = molecular target: T1, FLRT3 (antigen of the binning assay of Table 2) (Homo sapiens (Human), UniProt Q9NZU0 29-528, limits assumed); assay: antibody binning matrix (Table 2); competitor: 1H5
T1 construct: the whole entry for FLRT3 is named
T1 sequence: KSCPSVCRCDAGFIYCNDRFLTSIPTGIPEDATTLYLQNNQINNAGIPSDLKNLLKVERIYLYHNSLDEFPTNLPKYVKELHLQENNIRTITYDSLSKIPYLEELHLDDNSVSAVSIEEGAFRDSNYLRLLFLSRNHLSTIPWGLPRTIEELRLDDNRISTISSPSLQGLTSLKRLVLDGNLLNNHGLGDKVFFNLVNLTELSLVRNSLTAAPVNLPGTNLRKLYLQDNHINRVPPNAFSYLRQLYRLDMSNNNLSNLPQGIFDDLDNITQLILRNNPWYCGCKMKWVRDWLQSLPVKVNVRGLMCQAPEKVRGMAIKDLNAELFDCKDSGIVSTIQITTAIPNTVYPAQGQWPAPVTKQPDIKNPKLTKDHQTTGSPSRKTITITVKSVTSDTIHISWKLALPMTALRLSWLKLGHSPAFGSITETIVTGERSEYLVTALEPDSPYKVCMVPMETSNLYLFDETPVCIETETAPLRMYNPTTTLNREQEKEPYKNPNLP

[2] = molecular target: T1, FLRT3 (antigen of the binning assay of …); assay: antibody binning matrix (Table 2); competitor: 2F7
[3] = molecular target: T1, FLRT3 (antigen of the binning assay of …); assay: antibody binning matrix (Table 2); competitor: 5C2
[4] = molecular target: T1, FLRT3 (antigen of the binning assay of …); assay: antibody binning matrix (Table 2); competitor: 14B7
[5] = molecular target: T1, FLRT3 (antigen of the binning assay of …); assay: antibody binning matrix (Table 2); competitor: 14D3
[6] = molecular target: T2, FLRT3-His monomeric fusion protein (Homo sapiens (Human), UniProt Q9NZU0 29-528); assay: kinetic affinity measurement with FLRT3-His monomer (Table 1)
T2 construct: also called FLRT3 monomer; not shown: His tag
T2 sequence: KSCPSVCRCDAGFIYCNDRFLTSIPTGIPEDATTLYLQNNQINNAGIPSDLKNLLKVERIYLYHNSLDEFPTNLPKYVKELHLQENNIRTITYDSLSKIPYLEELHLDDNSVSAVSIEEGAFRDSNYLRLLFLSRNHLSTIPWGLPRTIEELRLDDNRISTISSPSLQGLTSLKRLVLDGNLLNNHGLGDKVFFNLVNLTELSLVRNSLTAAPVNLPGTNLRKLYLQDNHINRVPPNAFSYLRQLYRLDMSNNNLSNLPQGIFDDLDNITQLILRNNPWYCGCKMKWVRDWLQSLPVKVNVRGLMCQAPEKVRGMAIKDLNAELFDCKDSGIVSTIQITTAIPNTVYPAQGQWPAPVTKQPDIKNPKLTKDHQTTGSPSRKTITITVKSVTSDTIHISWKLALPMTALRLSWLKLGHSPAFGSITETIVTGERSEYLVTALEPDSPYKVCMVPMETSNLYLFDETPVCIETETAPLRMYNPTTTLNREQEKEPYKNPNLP

[7] = molecular target: T1, FLRT3 (antigen of the binning assay of …); assay: antibody binning matrix (Table 2); competitor: 15G11
human FLRT3 on cells [8] = molecular target: T3, human FLRT3 on cells (human, UniProt Q9NZU0 29-649); assay: flow cytometry (AF647 MFI), FLRT3-293T-OKT3 cells, antibody titration
T3 construct: also called hFLRT3
T3 sequence: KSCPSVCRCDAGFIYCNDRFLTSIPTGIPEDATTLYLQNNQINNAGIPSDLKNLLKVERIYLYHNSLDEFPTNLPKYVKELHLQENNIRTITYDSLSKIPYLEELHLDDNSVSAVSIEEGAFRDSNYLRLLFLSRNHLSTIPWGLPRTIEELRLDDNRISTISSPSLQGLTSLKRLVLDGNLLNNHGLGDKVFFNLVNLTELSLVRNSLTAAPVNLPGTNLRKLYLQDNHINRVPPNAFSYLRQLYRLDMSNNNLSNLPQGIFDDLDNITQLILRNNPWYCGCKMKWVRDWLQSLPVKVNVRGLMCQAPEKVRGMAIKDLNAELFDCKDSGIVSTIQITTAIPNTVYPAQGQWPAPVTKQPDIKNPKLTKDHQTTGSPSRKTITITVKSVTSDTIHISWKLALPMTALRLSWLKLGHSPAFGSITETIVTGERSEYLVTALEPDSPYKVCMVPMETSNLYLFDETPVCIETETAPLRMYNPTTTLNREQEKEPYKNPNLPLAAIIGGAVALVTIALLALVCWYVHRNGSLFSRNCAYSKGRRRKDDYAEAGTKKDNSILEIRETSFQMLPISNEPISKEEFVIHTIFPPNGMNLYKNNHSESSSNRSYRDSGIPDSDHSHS

[9] = molecular target: T1, FLRT3 (antigen of the binning assay of …); assay: antibody binning matrix (Table 2); row '1X Kinetic' (no first antibody), column antibody taken as binder
human FLRT3 on cells [10] = molecular target: T3, human FLRT3 on cells; assay: flow cytometry on A549 cells (endogenous hFLRT3), normalised MFI, non-linear fit
Procedure: Increasing concentrations of FLRT3 antibodies bound to A549 cells that express endogenous hFLRT3 (FIG. 19). Binding curves for the top three antibodies were performed (FIG. 20A). MFI values of each group were normalized within that group- i.e. largest value 100% and smallest value 0% (FIG. 20A). EC50 values were calculated based on non-linear regression fit (FIG. 20B).

human FLRT3 on cells [11] = molecular target: T3, human FLRT3 on cells; assay: flow cytometry on 293T cells transfected with human FLRT3, normalised MFI, non-linear fit; Exp 1
Source text: (§1) MFI values of each group were normalized within that group- i.e. largest value 100% and smallest value 0%.

human FLRT3 on cells [12] = molecular target: T3, human FLRT3 on cells; assay: flow cytometry on 293T cells transfected with human FLRT3, normalised MFI, non-linear fit; Exp 2
Source text: as §1

Binder | binning response (no name or unit printed) [1] | binning response (no name or unit printed) [2] | binning response (no name or unit printed) [3] | binning response (no name or unit printed) [4] | binning response (no name or unit printed) [5] | Kd [6] | koff [6] | kon [6] | binning response (no name or unit printed) [7] | EC50 (read off the curve) (human FLRT3 on cells [8]) | binning response (no name or unit printed) [9] | EC50 (human FLRT3 on cells [10]) | EC50 (human FLRT3 on cells [11]) | EC50 (human FLRT3 on cells [12]) | binding result (human FLRT3 on cells [8])
1H5 (antibody, V domains shown, Variable domains only) VH: EVQLQQSGPELVKPGASVKMSCKASGYTFTDYYMNWVKQSHGKSLEWIGRVNPSNGVTSYNQKFKGKAALTVDKSLSTAYMQLNSLTSEDSAVYYCARDFLMDYWGQGTSVTVSS VL: DIVMTQSHKFMSTSVGDRVTITCKASQDVGTAVAWYQQKPGQSPKLLIYWASTRHTGVPDRFTGSGSGTDFTLTISNVQSEDLADYFCQQYSSYPTFGGGTKLEIK | -0.0568 | -0.0098 | -0.26 | 1.2 | 0.549 | 0.19 nM | 1.6e-05 s⁻¹ | 140000 M⁻¹ s⁻¹ | 0.97 | ~10 nM | 0.947 | – | – | – | –
12A4 (antibody, V domains shown, Variable domains only) VH: EVQLQQSGPELVKPGASVKMSCKASGYTFTDYYMNWVKQSHGKSLEWIGRVNPSNGGTTYNQRFKGKATLTVDESLSTAYMQLNSLTSEDSAVYYCARDFLMDYWGQGTSVTVSS VL: DIVMTQSHKFMSTSVGDRVSITCKASQDVGTAVTWYQQKPGLSPKLLFYWASTRHTGVPDRFTGSGSGTDFTLTISNVQSEDLADYFCHQYSNYPTFGGGTKLEIK | – | – | – | – | – | 0.218 nM | 3.24e-05 s⁻¹ | 133000 M⁻¹ s⁻¹ | – | – | – | 251 nM | 15.7 nM | 17.7 nM | –
2F7 (antibody, V domains shown, Variable domains only) VH: EVQLQQSGPELVKPGASVKMSCKASGYTFTDYYMNWVKQSHGKSLEWIGRVYPSNSGASYNQKFKGKATLTVDKSLSTAYMQLNSLTSEDSAVYYCASSYYFDYWGQGTTLTVSS VL: DIVMTQSHKFMSTSIGDRVNITCKASQDVGTAVAWFQQKPGQSPKLLIYWASTRHTGVPDRFTGSGSGTDFTLTISNVQSEDLADYFCQQYSSYPTFGAGTTLELK | -0.116 | -0.0655 | -0.398 | 1.06 | 0.38 | – | 0.000135 s⁻¹ | 177000 M⁻¹ s⁻¹ | 0.798 | ~8 nM | 0.99 | – | – | – | –
10C6 (antibody, V domains shown, Variable domains only) VH: EIQLQQSGAEMVKPGASVKISCKASGHSFTGYNMNWVKQSHEKSLEWIGNINPYYGSTSYNQKFKGKATLTVDKSSSTAYMQLNSLTSEDSAVYYCARGGYDDYFDYWGQGTTLTVSS VL: not shown | – | – | – | – | – | – | – | – | – | – | – | – | – | – | no binding (tested: about 300 nM)
7H7 (antibody, V domains shown, Variable domains only) VH: EIQLQQSGAELVKPGASVKISCKASGYSFTGYNMNWVKQSHGKSLEWIGNINPYYGSTSYNQKFKGKATLTVDKSSNTAYMQLNSLTSEDSAVYYCARWGYGYDDWYFDVWGAGTTVTVSS VL: not shown | – | – | – | – | – | ≤ 0.001 nM | ≤ 1e-07 s⁻¹ | 60500 M⁻¹ s⁻¹ | – | – | – | – | – | – | –
20C3 (antibody, V domains shown, Variable domains only) VH: EVKLEESGGGLVQPGGSMKLSCVVSGFTFSNYWMNWVRQSPEKGLEWVAQIRLKSDNYATHYAESVKGRFTISRDDSKSSVYLQMNNLRAEDTGIYYCTGESNIYYGYFDYWGQGTTLTVSS VL: QIVLTQSPAIMSASPGEKVTMTCSASSSVSYMHWYQQKSGTSPKRWIYDTSKLASGVPARFSGSGSGTSYSLTISSMEAEDAATYYCQQWSGNPYTFGGGTKLEIK | – | – | – | – | – | 2.21 nM | 0.000207 s⁻¹ | 86200 M⁻¹ s⁻¹ | – | – | – | – | – | – | –
